From PMC12298772 come the findings set out here.

For the assay, the target named is PUUV SP-mEGFP-Gc∆CT (Gc devoid of the cytoplasmic tail, labelled with mEGFP) (Puumala orthohantavirus (PUUV), strain Sotkamo/V-2969/81). Kind of assay: Number and Brightness (N&B) fluorescence fluctuation microscopy.

The substance “PUUV SP-mEGFP-Gc∆CT (Gc devoid of the cytoplasmic tail, labelled with mEGFP) (domain or fragment)” gave an average multimerization of 1.4 and a fraction of monomers (assuming a monomer-dimer equilibrium) of 75 mol%.
